The target in assay [1] is T1, human HER-2 extracellular domain (HER-2 ECD) (human, UniProt P04626 23-646).
T1 construct: range 23-646; also called erbB2; HER2 protein
Description: competitive Fab-phage ELISA. Background: An ELISA detects its analyte on a solid surface through an enzyme-linked reagent.

Assay [2] deals with T1, human HER-2 extracellular domain (HER-2 …). Nature of the assay: competitive Fab-phage ELISA. The source holds these as a separate data set.

Read-outs that look alike come from different tables or passages of the source.

B1: B9 (Fab, V domains shown)
VH: EVQLVESGGGLVQPGGSLRLSCAASGFSIYYSYIHWVRQAPGKGLEWVASIYPSSGYTSYADSVKGRFTISADTSKNTAYLQMNSLRAEDTAVYYCARWWSSAFDYWGQGTLVTVSS
VL: DIQMTQSPSSLSASVGDRVTITCRASQDVNTAVAWYQQKPGKAPKLLIYSASSLYSGVPSRFSGSRSGTDFTLTISSLQPEDFATYYCQQSYYSPSTFGQGTKVEIK
One may read the IC50 as the concentration at which inhibition is half-maximal. A low value points to inhibition by little substance. In assay [1], B1 came in with an IC50 of 0.72 nM.

B2: G53 (Fab, V domains shown)
VH: EVQLVESGGGLVQPGGSLRLSCAASGFSISSSYIHWVRQAPGKGLEWVASIYPYSGYTSYADSVKGRFTISADTSKNTAYLQMNSLRAEDTAVYYCARYYSSAFDYWGQGTLVTVSS
VL: DIQMTQSPSSLSASVGDRVTITCRASQDVNTAVAWYQQKPGKAPKLLIYSASSLYSGVPSRFSGSRSGTDFTLTISSLQPEDFATYYCQQSYYYPSTFGQGTKVEIK
In the case of B2, the IC50 in assay [2] stood at 9.75 nM.

B3: G59 (Fab, V domains shown)
VH: EVQLVESGGGLVQPGGSLRLSCAASGFYISSSSIHWVRQAPGKGLEWVAYISPSSGYTYYADSVKGRFTISADTSKNTAYLQMNSLRAEDTAVYYCARYYSSYYSYYSYALDYWGQGTLVTVSS
VL: DIQMTQSPSSLSASVGDRVTITCRASQDVNTAVAWYQQKPGKAPKLLIYSASSLYSGVPSRFSGSRSGTDFTLTISSLQPEDFATYYCQQSYSYPYTFGQGTKVEIK
In assay [2], B3 showed an IC50 of 6.8 nM.

B4: G60 (Fab, V domains shown)
VH: EVQLVESGGGLVQPGGSLRLSCAASGFSIYYSSIHWVRQAPGKGLEWVASIYPYSGSTYYADSVKGRFTISADTSKNTAYLQMNSLRAEDTAVYYCARYYSSYSSSSSYYYYAFDYWGQGTLVTVSS
VL: DIQMTQSPSSLSASVGDRVTITCRASQDVNTAVAWYQQKPGKAPKLLIYSASSLYSGVPSRFSGSRSGTDFTLTISSLQPEDFATYYCQQYYSSPYTFGQGTKVEIK
In turn, B4 had an IC50 in assay [2] of 79.8 nM.

B5: G41 (Fab, V domains shown)
VH: EVQLVESGGGLVQPGGSLRLSCAASGFWIWSSSIHWVRQAPGKGLEWVAWISPSSGSTWYADSVKGRFTISADTSKNTAYLQMNSLRAEDTAVYYCARSSWSSWSSALDYWGQGTLVTVSS
VL: DIQMTQSPSSLSASVGDRVTITCRASQDVNTAVAWYQQKPGKAPKLLIYSASSLYSGVPSRFSGSRSGTDFTLTISSLQPEDFATYYCQQWSSWPSTFGQGTKVEIK
For the molecule B5, the IC50 in assay [2] amounted to 51 nM.

B6: G61 (Fab, V domains shown)
VH: EVQLVESGGGLVQPGGSLRLSCAASGFSIYYSSIHWVRQAPGKGLEWVASIYPSSGSTYYADSVKGRFTISADTSKNTAYLQMNSLRAEDTAVYYCARYYSSSSSYSSSYYYYAFDYWGQGTLVTVSS
VL: DIQMTQSPSSLSASVGDRVTITCRASQDVNTAVAWYQQKPGKAPKLLIYSASSLYSGVPSRFSGSRSGTDFTLTISSLQPEDFATYYCQQYYSSPYTFGQGTKVEIK
Turning to B6, the half-inhibitory concentration (IC50) in assay [2] is 145 nM.

B7: G42 (Fab, V domains shown)
VH: EVQLVESGGGLVQPGGSLRLSCAASGFWIWSSSIHWVRQAPGKGLEWVAWISPSSGSTWYADSVKGRFTISADTSKNTAYLQMNSLRAEDTAVYYCARSSWSSWSSALDYWGQGTLVTVSS
VL: DIQMTQSPSSLSASVGDRVTITCRASQDVNTAVAWYQQKPGKAPKLLIYSASSLYSGVPSRFSGSRSGTDFTLTISSLQPEDFATYYCQQWSSWPSTFGQGTKVEIK
The molecule B7 registered an IC50 in assay [2] of 43 nM.

B8: B20 (Fab, V domains shown)
VH: EVQLVESGGGLVQPGGSLRLSCAASGFSISSSYIHWVRQAPGKGLEWVASIYPYSGYTSYADSVKGRFTISADTSKNTAYLQMNSLRAEDTAVYYCARWWSSALDYWGQGTLVTVSS
VL: DIQMTQSPSSLSASVGDRVTITCRASQDVNTAVAWYQQKPGKAPKLLIYSASSLYSGVPSRFSGSRSGTDFTLTISSLQPEDFATYYCQQSYYSPSTFGQGTKVEIK
B8 showed an IC50 in assay [1] of 1.56 nM.

B9: B21 (Fab, V domains shown)
VH: EVQLVESGGGLVQPGGSLRLSCAASGFSIYSSYIHWVRQAPGKGLEWVASIYPYSGYTSYADSVKGRFTISADTSKNTAYLQMNSLRAEDTAVYYCARWSSSGFDYWGQGTLVTVSS
VL: DIQMTQSPSSLSASVGDRVTITCRASQDVNTAVAWYQQKPGKAPKLLIYSASSLYSGVPSRFSGSRSGTDFTLTISSLQPEDFATYYCQQYYYSPSTFGQGTKVEIK
In the case of B9, the concentration for half-maximal inhibition (IC50) in assay [1] amounted to 1.64 nM.

B10: B12 (Fab, V domains shown)
VH: EVQLVESGGGLVQPGGSLRLSCAASGFSISYSYIHWVRQAPGKGLEWVASIYPYSGYTSYADSVKGRFTISADTSKNTAYLQMNSLRAEDTAVYYCARWWSWAFDYWGQGTLVTVSS
VL: DIQMTQSPSSLSASVGDRVTITCRASQDVNTAVAWYQQKPGKAPKLLIYSASSLYSGVPSRFSGSRSGTDFTLTISSLQPEDFATYYCQQYYYSPSTFGQGTKVEIK
In assay [1], B10 registered an IC50 of 6.66 nM.

B11: B18 (Fab, V domains shown)
VH: EVQLVESGGGLVQPGGSLRLSCAASGFSISSSYIHWVRQAPGKGLEWVASIYPYSGYTSYADSVKGRFTISADTSKNTAYLQMNSLRAEDTAVYYCARWWSSAFDYWGQGTLVTVSS
VL: DIQMTQSPSSLSASVGDRVTITCRASQDVNTAVAWYQQKPGKAPKLLIYSASSLYSGVPSRFSGSRSGTDFTLTISSLQPEDFATYYCQQYYYSPSTFGQGTKVEIK
With B11, the half-inhibitory concentration (IC50) in assay [1] was 0.93 nM.

B12: B14 (Fab, V domains shown)
VH: EVQLVESGGGLVQPGGSLRLSCAASGFSIYYSYIHWVRQAPGKGLEWVASIYPSSGYTSYADSVKGRFTISADTSKNTAYLQMNSLRAEDTAVYYCARWWSSAFDYWGQGTLVTVSS
VL: DIQMTQSPSSLSASVGDRVTITCRASQDVNTAVAWYQQKPGKAPKLLIYSASSLYSGVPSRFSGSRSGTDFTLTISSLQPEDFATYYCQQYYYYPYTFGQGTKVEIK
In the case of B12, the half-maximal inhibitory concentration (IC50) in assay [1] amounted to 1.36 nM.

B13: G55 (Fab, V domains shown)
VH: EVQLVESGGGLVQPGGSLRLSCAASGFSIYSSYIHWVRQAPGKGLEWVASIYPYSGYTSYADSVKGRFTISADTSKNTAYLQMNSLRAEDTAVYYCARYYSYAFDYWGQGTLVTVSS
VL: DIQMTQSPSSLSASVGDRVTITCRASQDVNTAVAWYQQKPGKAPKLLIYSASSLYSGVPSRFSGSRSGTDFTLTISSLQPEDFATYYCQQSYYYPSTFGQGTKVEIK
In turn, B13 had an IC50 in assay [2] of 6.52 nM.

B14: B17 (Fab, V domains shown)
VH: EVQLVESGGGLVQPGGSLRLSCAASGFYIYSSYIHWVRQAPGKGLEWVASIYPYSGYTSYADSVKGRFTISADTSKNTAYLQMNSLRAEDTAVYYCARWWSSGFDYWGQGTLVTVSS
VL: DIQMTQSPSSLSASVGDRVTITCRASQDVNTAVAWYQQKPGKAPKLLIYSASSLYSGVPSRFSGSRSGTDFTLTISSLQPEDFATYYCQQSYYYPSTFGQGTKVEIK
In assay [1], B14 yielded a 50% inhibitory concentration (IC50) of 5.76 nM.

B15: B15 (Fab, V domains shown)
VH: EVQLVESGGGLVQPGGSLRLSCAASGFSISSSYIHWVRQAPGKGLEWVASIYPYSGYTSYADSVKGRFTISADTSKNTAYLQMNSLRAEDTAVYYCARWWSSALDYWGQGTLVTVSS
VL: DIQMTQSPSSLSASVGDRVTITCRASQDVNTAVAWYQQKPGKAPKLLIYSASSLYSGVPSRFSGSRSGTDFTLTISSLQPEDFATYYCQQSYYSPSTFGQGTKVEIK
The molecule B15 had a 50% inhibitory concentration (IC50) in assay [1] of 1.75 nM.

B16: B1 (Fab, V domains shown)
VH: EVQLVESGGGLVQPGGSLRLSCAASGFYISSSYIHWVRQAPGKGLEWVASIYPYSGYTSYADSVKGRFTISADTSKNTAYLQMNSLRAEDTAVYYCARYYSYAFDYWGQGTLVTVSS
VL: DIQMTQSPSSLSASVGDRVTITCRASQDVNTAVAWYQQKPGKAPKLLIYSASSLYSGVPSRFSGSRSGTDFTLTISSLQPEDFATYYCQQSYYSPSTFGQGTKVEIK
Turning to B16, the IC50 in assay [1] turned out to be 6.28 nM.

B17: B16 (Fab, V domains shown)
VH: EVQLVESGGGLVQPGGSLRLSCAASGFSISYSYIHWVRQAPGKGLEWVASIYPYSGYTSYADSVKGRFTISADTSKNTAYLQMNSLRAEDTAVYYCARWWSSAFDYWGQGTLVTVSS
VL: DIQMTQSPSSLSASVGDRVTITCRASQDVNTAVAWYQQKPGKAPKLLIYSASSLYSGVPSRFSGSRSGTDFTLTISSLQPEDFATYYCQQYYYYPSTFGQGTKVEIK
In the case of B17, the 50% inhibitory concentration (IC50) in assay [1] stood at 1.77 nM.

B18: B10 (Fab, V domains shown)
VH: EVQLVESGGGLVQPGGSLRLSCAASGFSIYYSYIHWVRQAPGKGLEWVASIYPSSGYTSYADSVKGRFTISADTSKNTAYLQMNSLRAEDTAVYYCARWWSSGFDYWGQGTLVTVSS
VL: DIQMTQSPSSLSASVGDRVTITCRASQDVNTAVAWYQQKPGKAPKLLIYSASSLYSGVPSRFSGSRSGTDFTLTISSLQPEDFATYYCQQSYYSPSTFGQGTKVEIK
In assay [1], B18 had an IC50 of 3.76 nM.

B19: G33 (Fab, V domains shown)
VH: EVQLVESGGGLVQPGGSLRLSCAASGFSIWSSWIHWVRQAPGKGLEWVASISPSSGWTSYADSVKGRFTISADTSKNTAYLQMNSLRAEDTAVYYCARWWSSALDYWGQGTLVTVSS
VL: DIQMTQSPSSLSASVGDRVTITCRASQDVNTAVAWYQQKPGKAPKLLIYSASSLYSGVPSRFSGSRSGTDFTLTISSLQPEDFATYYCQQWWWWPSTFGQGTKVEIK
B19: in assay [2], the concentration for half-maximal inhibition (IC50) was determined as 1.7 nM.

B20: B13 (Fab, V domains shown)
VH: EVQLVESGGGLVQPGGSLRLSCAASGFSIYYSYIHWVRQAPGKGLEWVASIYPSSGYTSYADSVKGRFTISADTSKNTAYLQMNSLRAEDTAVYYCARWWSSAFDYWGQGTLVTVSS
VL: DIQMTQSPSSLSASVGDRVTITCRASQDVNTAVAWYQQKPGKAPKLLIYSASSLYSGVPSRFSGSRSGTDFTLTISSLQPEDFATYYCQQSYYYPSTFGQGTKVEIK
B20 showed an IC50 in assay [1] of 1.1 nM.

B21: G56 (Fab, V domains shown)
VH: EVQLVESGGGLVQPGGSLRLSCAASGFYISSSYIHWVRQAPGKGLEWVASIYPYSGYTSYADSVKGRFTISADTSKNTAYLQMNSLRAEDTAVYYCARYYSYALDYWGQGTLVTVSS
VL: DIQMTQSPSSLSASVGDRVTITCRASQDVNTAVAWYQQKPGKAPKLLIYSASSLYSGVPSRFSGSRSGTDFTLTISSLQPEDFATYYCQQSYYSPSTFGQGTKVEIK
For the molecule B21, in assay [2], the 50% inhibitory concentration (IC50) amounted to 7.13 nM.
